Experimental data taken from patent US20060165683A1, “Methods and compositions for control of bone formation via modulation of sympathetic tone” (priority 2001, published 2006).

Legend:
[1] = tested on: primary osteoblasts isolated from wild-type mice; assay: Leptin signaling in primary osteoblast cultures (Stat3 phosphorylation, immediate early genes, matrix synthesis and mineralization); format: cell-based, mouse
Procedure: Expression of leptin in osteoblasts was studied in subconfluent primary osteoblast cultures from wild-type mice which were maintained for 4 days in 10% FBS mineralization medium and then subsequently switched to 0.5% for 2 days and replaced daily. Medium was replaced 2 hours before a 20 min treatment with 80 ng/mL leptin (Sigma) or 40 ng/mL Oncostatin M (R&D Diagnostics) or vehicle. RNA extractions were performed using Triazol (Gibco). Northern blots were performed with 15 μg of total RNA according to methods well known in the art.
To determine whether or not leptin could transduce its signal in osteoblasts, serum-starved primary osteoblasts isolated from wild-type mice were treated with leptin. Primary osteoblast cultures from calvaria of newborn wild-type or db/db mice were established as previously described (Ducy et al., 1999, Genes Dev 13, 1025-1036) and maintained in mineralization medium (αMEMI 0.1 mg/mL ascorbic acid; 5 mM […]) supplemented with 10% […]. Cultures of mutant cells were maintained in this medium for 15 days before analysis. Cultures derived from wild-type mice were maintained for 10 days in this medium then the percentage of serum was reduced to 0.5% and the medium supplemented with 1.2 μg/mL leptin (Sigma) or vehicle for 5 days.
The phosphorylation of Stat3, a downstream effector of leptin signaling in its target cells (Tartaglia et al., 1995, Cell 83, 1263-1271; Baumann et al., 1996, Proc Natl Acad Sci USA 93, 8374-8378; Ghilardi et al., 1996, Proc Natl Acad Sci USA 93, 6231-6235; Vaisse et al., 1996, Nat Genet 14, 95-97), was monitored, in addition to the expression of two immediate early genes whose transcription is increased following leptin treatment of target cells (Elmquist et al., 1997, Endocrinology 138, 839-842). As a positive control oncostatin-M that induces Stat3 phosphorylation and activates the expression of the same two immediate early genes in osteoblasts (Levy et al., 1996, Endocrinology 137, 1159-1165) was utilized. Western blot analysis was performed to determine Stat3 phosphorylation as follows. Cells were lysed, protein extracts were separated on a 7.5% SDS-PAGE and blotted on nitrocellulose (Biorad) for immunoblotting assay by methods well known in the art. Analysis of Stat3 phosphorylation was performed using the PhosphoPlus Stat3 (Tyr7O5) Antibody kit (New England Biolabs) according to the manufacturer's instructions.
Finally, the effect of a long-term leptin treatment of primary osteoblast cultures from wild-type mice on extracellular matrix synthesis and bone matrix mineralization was determined. The presence of a collagen-rich extracellular matrix and of mineralization nodules was assessed by whole-mount staining of the cultures by the van Gieson and von Kossa reagent, respectively. No difference was observed when assessing collagen synthesis or mineralization nodule formation between control and leptin-treated cultures (FIG. 5E).

GTG-treated ob/ob mice = assay: Leptin ICV infusion in GTG-treated ob/ob mice; format: in vivo, mouse
Procedure: (§1) Wildtype (C57BL/6J) and mutant (C57BL/6J A^y/a, C57BL/6J ob/ob) mice were obtained from the Jackson laboratory and adrenal medullectomized mice from Harlan Tecklad laboratory. Dbh−/− mice were rescued as previously described (Thomas et al., 1998, Neurochem 70:2468-2476). Isoproterenol (Sigma) was injected intraperitoneally (ip) once daily for 6 weeks at 30 mg/kg (wt) or 3 mg/kg (ob/ob). Propranolol (Sigma) was added to the drinking water at a concentration of 0.5 g/l. For ICV infusion, a 28-gauge cannula (Brain infusion kit II, Alza) was implanted into the third ventricle as previously described infusing human leptin (Sigma) at 8 ng/hr or MT-II at 125 ng/hr (Phoenix Pharmaceuticals) for 28 days (see, e.g., Ducy et al., 2000, Cell 100: 197-207). The cannula was connected to an osmotic pump (Alza) placed in the dorsal subcutaneous space of the animal. For parabiosis longitudinal incisions were made in the skin and in the peritoneal cavity along one side on each mouse. Edges of the incisions were connected by suture to induce coelioanastomosis. Cross-circulation was quantified by injecting 1 ml/kg 0.25% Evans blue into the tail vein of one mouse of the parabiosed pair. After 30 min. blood was collected from both mice by retroorbital bleeding and the blood exchange rate was calculated according to standard techniques (see, e.g., Harris & Martin, 1984, Am J Physiol 247:R380-386). […]

[2] = tested on: propranolol-treated wt mice; assay: Leptin ICV infusion in propranolol-treated mice; format: in vivo, mouse; conditions: centrally delivered leptin
Procedure: as §1

B1: leptin: polypeptide hormone, product of the ob gene; human leptin (Sigma) infused ICV (protein)
chain: VPIQKVQDDTKTLIKTIVTRINDISHTQSVSAKQRVTGLDFIPGLHPILSLSKMDQTLAVYQQVLTSLPSQNVLQIANDLENLRDLLHLLAFSKSCSLPQTSGLQKPESLDGVLEASLYSTEVVALSRLQGSLQDILQQLDVSPEC
collagen synthesis or mineralization nodule formation vs control cultures ([1]; long-term treatment, 1.2 μg/mL leptin for 5 days, 0.5% serum): No difference | expression of Tis11 and c-fos (Northern analysis) ([1]; primary osteoblasts, 20 min treatment): not | Stat3 phosphorylation (Western blot) ([1]; serum-starved primary osteoblasts, 20 min, leptin 80 ng/mL, Oncostatin M 40 ng/mL): did not | body weight (GTG-treated ob/ob mice): decreased | bone mass (GTG-treated ob/ob mice): failed to decrease | bone mass [2]: did not affect | fat pads [2]: disappearance
